Measured values published in patent publication US5501962, “Interleuken-3 (IL-3) human/murine hybrid polypeptides and recombinant production of the same” (G. D. Searle & Co., dated 1996).
Positions count from the first letter of the chain named.

T1: IL-3 receptor (human, UniProt P26951)
T1 sequence: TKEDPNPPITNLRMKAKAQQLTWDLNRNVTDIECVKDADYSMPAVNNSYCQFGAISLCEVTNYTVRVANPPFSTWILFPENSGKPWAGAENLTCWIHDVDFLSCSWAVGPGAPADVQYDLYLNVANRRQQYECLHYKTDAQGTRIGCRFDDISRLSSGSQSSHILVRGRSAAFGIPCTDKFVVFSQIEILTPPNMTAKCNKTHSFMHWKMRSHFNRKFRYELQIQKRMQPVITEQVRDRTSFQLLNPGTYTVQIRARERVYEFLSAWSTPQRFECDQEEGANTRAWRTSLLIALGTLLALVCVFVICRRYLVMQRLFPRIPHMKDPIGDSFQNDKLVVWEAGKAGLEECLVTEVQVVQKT

B1: pMON5975 (Met-15-125hIL-3) having an M4 substitution (ligand)
chain: MNCSNMIDEIITHLKQPPLPLLDFNNLTDDEGPILMENNLRRPNLEAFNRAVKSLQNASAIESILKNLLPCLPLATAAPTRHPIHIKDGDWNEFRRKLTFYLKTLENAQAQQ
B2: pMON5980 (Met-Ala-15-125hIL-3) having an M1 substitution (ligand)
chain: MANCSSIVKEIIGKLPQPPLPLLDFNNLNGEDQDILMENNLRRPNLEAFNRAVKSLQNASAIESILKNLLPCLPLATAAPTRHPIHIKDGDWNEFRRKLTFYLKTLENAQAQQ
B3: pMON5963 (Met-15-125hIL-3 Ala 101) having an M9 substitution (ligand)
chain: MNCSNMIDEIITHLKQPPLPLLDFNNLNGEDQDILMENNLRRPNLEAFNRAVKSLQNASAIKSNLQKLNSCLPLATAAPTRHPIHIKAGDWNEFRRKLTFYLKTLENAQAQQ
B4: pMON5977 (Met-15-125hIL-3) having an M3 substitution (ligand)
chain: MNCSNMIDEIITHLKQPPLPLLEPELKNGEDQDILMENNLRRPNLEAFNRAVKSLQNASAIESILKNLLPCLPLATAAPTRHPIHIKDGDWNEFRRKLTFYLKTLENAQAQQ
B5: pMON5962 (Met-15-125hIL-3) having an M10 substitution (ligand)
chain: B4 chain with E23D, P24F, E25N, L26N, K27L, L74T, A75S, T76A, A77N, A78D
B6: pMON5970 (Met-15-125hIL-3) having an M5 substitution (ligand)
chain: B4 chain with E23D, P24F, E25N, L26N, K27L, I34S, M36R, E37N, N38K, N39S
B7: pMON5974 (Met-15-125hIL-3 del aa29-35) having the M2 deletion shown in FIG. 19 (ligand)
chain: MNCSNMIDEIITHLKDFNNLNGEDQDILMENNLRRPNLEAFNRAVKSLQNASAIESILKNLLPCLPLATAAPTRHPIHIKDGDWNEFRRKLTFYLKTLENAQAQQ
B8: (1-133)hIL-3 (ligand)
chain: APMTQTTSLKTSWVNCSNMIDEIITHLKQPPLPLLDFNNLNGEDQDILMENNLRRPNLEAFNRAVKSLQNASAIESILKNLLPCLPLATAAPTRHPIHIKDGDWNEFRRKLTFYLKTLENAQAQQTTLSLAIF
B9: pMON5972 (Met-15-125hIL-3) having an M6 substitution (ligand)
chain: MNCSNMIDEIITHLKQPPLPLLDFNNLNGEDQDILMENNFRRVNLSKFVEAVKSLQNASAIESILKNLLPCLPLATAAPTRHPIHIKDGDWNEFRRKLTFYLKTLENAQAQQ
B10: pMON5961 (Met-15-125hIL-3) having an M12 substitution (ligand)
chain: B4 chain with E23D, P24F, E25N, L26N, K27L, P83G, I84V, H85F, K87R
B11: pMON5960 (Met-15-125hIL-3) having an M11 substitution (ligand)
chain: B4 chain with E23D, P24F, E25N, L26N, K27L, P79S, T80A, R81L, H82P
B12: pMON5968 (Met-15-125hIL-3) having an M13 substitution (ligand)
chain: MNCSNMIDEIITHLKQPPLPLLDFNNLNGEDQDILMENNLRRPNLEAFNRAVKSLQNASAIESILKNLLPCLPLATAAPTRHPIHIKDLDEFRRKLTFYLKTLENAQAQQ
B13: pMON5979 (Met-15-125hIL-3 ALA 101) having an M8 substitution (ligand)
chain: MNCSNMIDEIITHLKQPPLPLLDFNNLNGEDQDILMENNLRRPNLEAFNRAVKSLQPEDRYVIESILKNLLPCLPLATAAPTRHPIHIKAGDWNEFRRKLTFYLKTLENAQAQQ
B14: pMON5973 (Met-15-125hIL-3) having an M7 substitution (ligand)
chain: MNCSNMIDEIITHLKQPPLPLLDFNNLNGEDQDILMENNLRRPNLEAFNRSQGEVDNASAIESILKNLLPCLPLATAAPTRHPIHIKDGDWNEFRRKLTFYLKTLENAQAQQ

target: IL-3 receptor (human) (UniProt P26951); assay: not given

Row | Growth Factor Activity (AML 193 1.3 proliferation, 3H-thymidine; Relative Biological Activity) (relative to native hIL-3) | Leukotriene Stimulating Activity (IL-3 mediated sulfidoleukotriene release from human mononuclear cells; Relative Biological Activity) (relative to native hIL-3) | Binder
1 | 0.04 | < 0.01 | B1
2 | 0.03 | < 0.01 | B2
3 | 5.01 | 12.9 | B3
4 | 3.98 | 0.31 | B4
5 | 1.26 | 10.7 | B5
6 | 0.04 | < 0.01 | B6
7 | 0.08 | < 0.01 | B7
8 | 1 | 1 | B8
9 | 0.2 | 0.15 | B9
10 | 0.5 | 3.63 | B10
11 | 0.13 | 0.1 | B11
12 | 0.06 | 0.59 | B12
13 | 7.94 | 0.46 | B13

target: T1, IL-3 receptor; assay: cell-based or functional assay

Row | Growth Factor Activity (AML 193 1.3 proliferation, 3H-thymidine; Relative Biological Activity) | Leukotriene Stimulating Activity (IL-3 mediated sulfidoleukotriene release from human mononuclear cells; Relative Biological Activity) | Binder
14 | 0.2 relative to native hIL-3 | ≤ 0.01 relative to native hIL-3 | B14

target: IL-3 receptor (human) (UniProt P26951); assay: competition with iodinated hIL-3 ligand (pMON 5966) on AML 193 1.3.9 cells

Row | IL-3 Receptor Binding Activity (relative to native hIL-3) (relative to native hIL-3) | Binder
15 | < 0.01 | B1
16 | < 0.01 | B2
17 | 1.32 | B3
18 | 0.19 | B4
19 | 0.81 | B5
20 | < 0.01 | B6
21 | 0.08 | B9
22 | 1.05 | B10
23 | < 0.01 | B11

target: T1, IL-3 receptor; assay: as above
Protocol: These cells were further selected using biotin conjugated hIL-3 and FITC-avidin for repetitive fluorescence activated cell sorting (FACS) and were designated AML 193 1.3.9. This line was grown in IMDM supplemented with 5% FBS and 40 μM beta-mercaptoethanol and human IL-3 (1 to 4 ng/mL). The HL-60 cell line was obtained from ATCC and grown in RPMI 1640, 10% FBS and 40 μM beta-mercaptoethanol. Ligand for IL-3 receptor assays was derived from an E. coli expression vector encoding full length hIL-3 molecule (amino acids 1 to 133) having a 14 amino acid N-terminal extension. ([…][SEQ ID NO: 119]; designated as pMON 5966, est. MW 16,976). This construct contained two additional tyrosines which were essential for iodination to high-specific radioactivity without loss of biological activity. This ligand was radiolabeled with iodine-125 using an insoluble lactoperoxidase method (®Enzymobeads) and used following HPLC purification. […] Ligand for GM-CSF receptor assays was prepared by radiolabelling native GM-CSF with iodine-125 using the IODO-GEN method (Pierce Chemical) according to manufacturer's specifications.
For IL-3 receptor assays, AML 193 1.3.9 cells were incubated overnight in medium without growth factor. On the day of the assay the cells were washed 3 times with Hanks balanced salt solution, resuspended in assay buffer (IMDM, 5% FBS, 40 μM 2-ME and 0.1% BSA) and counted using a hemacytometer. Assay tubes contained the test compounds or inhibitors under study, 0.2% sodium azide, iodinated hIL-3 ligand (pMON 5966), 5–10×10^6 cells, and buffer in a total volume of 100 μL. Unlabelled hIL-3 (250 nM) was used to define non-specific binding, and each assay point was set up in triplicate. After incubation with gentle orbital agitation at 200 rpm for two hours at room temperature, 1 mL of ice-cold medium was added and the binding reaction was immediately terminated by centrifugation. The supernatant was removed by aspiration, and the tip of the tube containing the cell pellet was cut off and counted in a Micromedic gamma counter.

Row | IL-3 Receptor Binding Activity (relative to native hIL-3) | binding result | Binder
24 | ≤ 0.01 relative to native hIL-3 | no binding | B7
25 | 0.25 relative to native hIL-3 |  | B12
26 | 1.21 relative to native hIL-3 |  | B13

target: IL-3 receptor (human) (UniProt P26951); assay: competition with iodinated hIL-3 ligand (pMON 5966) on AML 193 1.3.9 cells; this is the reference itself

Row | IL-3 Receptor Binding Activity (relative to native hIL-3) (relative to native hIL-3) | Binder
27 | 1 | B8
